From article PMC10622425 come the findings set out here.

Where “and” joins values, the source holds several entries; their conditions need not be identical. Equal values may be shown once.

The target of this test is M2 protein of human Influenza A virus A/WSN/33 (H1N1), wild type (Influenza A virus A/WSN/33 (H1N1)).

Consider “M2 protein of human Influenza A virus A/WSN/33 (H1N1), wild type (natural protein)”, for which the stoichiometry N is 4 and 2 and 3.
